According to the supplement of paper PMC9170038:

Tested on: MS2 coat protein
Assay: apparent KD of MS2 coat protein; designed switch direction (-1 OFF switch, 1 ON switch): -1; higher = weaker reporter binding
Method in brief: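 Transcription of designed RNA switches on Illumina chips was done by stalled E. coli RNA polymerase. SNAP-549-labelled MS2 coat protein was then titrated in doubling steps from 0.7 or 1.5 nM to 3 µM, with steps of 0.8–1.5 h at the lowest and 10–20 min at the highest concentration. The per-design median over clusters of curve-fitted normalised fluorescence is reported as apparent KD.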

[1] = Eterna round: R95, input ligand: microRNA oligo, concentration not stated
[2] = Eterna round: R95, input ligand: FMN 200 uM
[3] = Eterna round: R95, input ligand: none
[4] = input ligand: microRNA oligo, concentration not stated

Row | Sequence | apparent KD of MS2 coat protein (input ligand: FMN 200 uM) [nM] | apparent KD of MS2 coat protein (input ligand: none) [nM] | apparent KD of MS2 coat protein [1] [nM] | apparent KD of MS2 coat protein [2] [nM] | apparent KD of MS2 coat protein [3] [nM] | apparent KD of MS2 coat protein [4] [nM]
1 | AAGAUACAUGAGGAUCACCCAUGUGAGGAUAUGAGUCAGUCACGGUGACGUGGCUGACUCAGAAGGCACAAAGG [JL-ex1-4.36 salish99 mod] (Eterna round: R97, puzzle: Exclusion 1) | 176 | 110 | – | – | – | –
2 | UUUUAACAUGAGGAUCACCCAUGUGAGGAUAUCGAAAUUUAUAUUAAUAUUUUUAAAUCGAGAAGGCACAUUUU [JMF 68] (puzzle: Exclusion 1) | – | – | 98.9 | – | – | –
3 | AUAAUUUAAGUGAGGAUAUACCUAUGGAAACAUAGGUAGAAGGCACAUGAGGAUCACCCAUGUUCCUAUACAAA [Fiskers BMX 4 - 1] (puzzle: Brourd's mod of Exclusion 4) | – | – | 12.7 | 16.5 | 9.08 | –
4 | GCCCAGAGAGGAUAUACAUGAGGAUCACCCAUGUAGAGCUUGUCUGCAGUGAAAGGAUGUAGAAGGCUCGGGCA [Racearza] (Eterna round: R97, puzzle: Exclusion 3) | 42.6 | 26.8 | – | – | – | –
5 | GUGUGCAGAGGAUAUACAGAGGAAAAUAAUAAAUAAUAUUGACAUGAGGAUCACCCAUGUAGAAGGCUGAGUGU [Excluse me!! 25 - Jieux - Exclusion 2] (puzzle: Exclusion 2) | – | – | 37.4 | 38.3 | 39.7 | –
6 | UCCUUACUGGUCAGGAUAUACAUUCGCGGGUGGGUGUAGAAGGGACAUGAGGAUCACCCAUGUACGUUACAUCC [alecazam54g] (Eterna round: R97, puzzle: Brourd's mod of Exclusion 4) | 18 | 16 | – | – | – | –
7 | UCGCUCCGUGUAGGAUAUCGCCGUACUAUGCGGCGAGAAGGACAUGAGGAUCACCCAUGUAUGUUAUUAUCACGCGUGGCGCAA [Design 61] (Eterna round: R96, puzzle: Exclusion NG 1) | 17.9 | 16.2 | – | – | – | 13.4
8 | ACAUGAGGAUCACCCAUGUAAACAUAAUGGCUCAUGUAGAGUCAGGAUAUGCGUGGCUAACAAUCGCAGAAGGGACAAGACUGG [Deportation 29 - Jieux - Exclusion NG 3] (Eterna round: R96, puzzle: Exclusion NG 3) | 22.1 | 24.5 | – | – | – | 20.2
9 | ACGCCGCAAGGAUAUACUUGCGGUGAUGUUCGAGUUCUUCUACUUGAGGAUCACCCAAGUAGAAGGUGCGAUGG [jl-ex2.4.61 ViennaUCT mod] (Eterna round: R97, puzzle: Exclusion 2) | 13.7 | 13.8 | – | – | – | –
10 | UUUUUAUAUGAAGGAUAUACUUAACAUGAGGAUCACCCAUGUGGUGUUGUGAGUGAGUGAGUUUAGUAGAAGGUCAAUUAGUAU [JMF's solution 101] (Eterna round: R96, puzzle: Exclusion NG 2) | 1110 | 295 | – | – | – | 253
11 | UACAUGAGGAUCACCCAUGUUUUGUCGUGUAUGGUAUUUAUCUAGGAUAUCAAUUUAGUCAUUUAUGAGAAGGAGAAUAUUAAU [JMF's solution 74] (Eterna round: R96, puzzle: Exclusion NG 3) | 35.5 | 38.4 | – | – | – | 28.6
12 | UCUUGUUGUCCGUGAGAAGACAUGAGGAUCACCCAUGUUAGUUUGAUUAUGAUGUGUAAGUUUGUUGCUCGUUUUAU [JR_STOV1_v2_Sub071] (Eterna round: R97, puzzle: Sensor, turn-off variant 1) | 50.2 | 56.5 | – | – | – | –
13 | CGCUGUUGAGGAUAUGGGCGUGGGUACAUGAGGAUCACCCAUGUGUUGUCGCGCGUGGGUCUAGAAGGCGGCGGUG [-29.1, -27.2 kcal, 16% A] (Eterna round: R97, puzzle: Exclusion 5) | 12.1 | 13.8 | – | – | – | –
14 | CUGAACCCGGUAGGAUAUAUUGUGGGCAGGCGUGGAACGACAUGAGGAUCACCCAUGUAAUUUAGGUAGAAGGGCCGAGAGAUU [Excl-NG2-LRO13] (Eterna round: R96, puzzle: Exclusion NG 2) | 22.9 | 37.3 | – | – | – | 21.7
15 | AGACACUUAGGAUAUCAGGCAAUGCACAUGAGGAUCACCCAUGUGGUCUUGGUCCGGGACUGAGAAGGAAGAGUCC [EX5 B.10] (Eterna round: R97, puzzle: Exclusion 5) | 20.1 | 19 | – | – | – | –
16 | GAUACACAUGAGGAUCACCCAUGUGAGGAUAUGCGUACGUUGUCCGUAGGCGACGUGCGCAGAAGGCGCUUGGU [Mat - Mod of JL D98] (puzzle: Exclusion 1) | – | – | 57.3 | – | – | –
17 | AAAGAACAUGAGGAUCACCCAUGUGAGGAUAUGCGAAAACCGCUAACAAACCAGACGGGCAGAAGGCAUAUGGU [Leistequ] (puzzle: Exclusion 1) | – | – | 39.1 | 68.9 | 63.7 | –
18 | AAAUGAAAGGCAGGAUAUCGUACUGAUCUUUGUCGAGAAGGGCCAGGGUCCCUCGGCUACAUGAGGAUCACCCAUGUUAAAAGA [Onabele] (Eterna round: R96, puzzle: Exclusion NG 1) | 56.9 | 36.2 | – | – | – | 29.4
19 | ACAUGUCAUCGAGGAUAUUGUACACAUGAGGAUCACCCAUGUACUCGGUUGCUCUAGCAUGAGUUCGAGAAGGCGAUGUACAUU [Ex NG2 #81] (Eterna round: R96, puzzle: Exclusion NG 2) | 178 | 38.4 | – | – | – | 28.9
20 | GUAGAGUCAGGAUAUACGAGAUCGAAAGAUCGGCGAUCCCUACAUGAGGAUCACCCAUGUAGAAGGGACUCUAC [Eli x2 4.12] (Eterna round: R97, puzzle: Exclusion 2) | 28.7 | 14.9 | – | – | – | –
21 | GGUACUAACACGAAAGUGUUAGUACUAUAAGCUUGUGUUACAUGAGGAUCACCCAUGUCCUCAUAGGCUCGUCUUGU [JL-sv3-2.17 mat747 mod] (puzzle: Sensor v3, turn-off variant 2) | – | – | 51 | 105 | 115 | –
22 | UACAUGAGGAUCACCCAUGUUUUGUCGUGUAUGGUAUUUAUCUAGGAUAUCAAUCUAUUUAUUUAUGAGAAGGAGAAUAUUAAU [JMF's solution 13] (Eterna round: R96, puzzle: Exclusion NG 3) | 39.6 | 42.3 | – | – | – | 25.7
23 | GGUUGGCGAGGAUAUACAUGAGGAUCACCCAUGUGAGAGAAAAACGUGAGGAAGAAAAGUAGAAGGCGCUGACG [salish99_ex3_r3_025] (puzzle: Exclusion 3) | – | – | 81.6 | 36.4 | 65.6 | –
24 | GCAGGAUAAGUGAGGAUAUACCUAUGGAUACAUAGGUAGAAGGCACAUGAGGAUCACCCAUGUUCCUUGCCUGC [Fiskers BMX 4 - 67] (puzzle: Brourd's mod of Exclusion 4) | – | – | 13.2 | – | – | –
25 | AUCGUGCAGCUUUGCUGUACGAGUACAUGAGGAUCACCCAUGUAGGAUAUGGUACGCUUUGCGUGCCAGAAGGACGUGCGUUAG [salish99_ExNG3_r04_003] (Eterna round: R96, puzzle: Exclusion NG 3) | 63.2 | 43.7 | – | – | – | 34.3
